Laboratory results taken from US20090155164A1 (Amgen, published 2009).
Values belong to the binder of their own block, whether it stands above or below them.

How the values were obtained:
[1] = molecular target: T1, human c-fms, full length, on cells (human, UniProt P07333 20-972); test: cell-based or functional assay
[2] = molecular target: T1, human c-fms, full length, on cells; test: cell-based or functional assay; remark: listed apart in the source
[3] = molecular target: T2, cynomolgus monkey c-fms on primary bone marrow cells (cynomolgus monkey); test: cell-based or functional assay
[4] = molecular target: T1, human c-fms, full length, on cells; test: cell-based or functional assay; remark: listed apart in the source
[5] = molecular target: T2, cynomolgus monkey c-fms on primary bone …; test: cell-based or functional assay; remark: listed apart in the source
[6] = molecular target: T3, monomeric human c-fms (residues 1-512)-pHis (human, UniProt P07333 20-512); test: Biacore (summary table)
T3 construct: Construct stated as residues 1-512; signal stated as amino acids 1-19 and left out; also called human c-fms (1-512).pHIS; monomeric c-fms
Description: (§1) Anti-c-fms 1.2 or 1.2 SM at 0.25 μg/ml was injected over goat anti-human IgG, Fcγ in one flow cell for 2 minutes at 10 μl/min to obtain a surface density of ˜47 RUs. Another flow cell with goat anti-human IgG, Fcγ alone was used as a reference surface. Each assay started with ten cycles of buffer as the analyte to stabilize the signal. […] Each complex was allowed to associate for 2 minutes, and dissociate for 5 minutes. The surfaces were regenerated after each c-fms or buffer injection with a 30-second pulse of 10 mM glycine HCl, pH 1.5 at 100 μl/min, followed by a 30-second injection of buffer.
(§2) Other anti-c-fms antibodies were tested in a similar manner, but changes were made to the protocol to account for differences in binding characteristics.
(§3) Data was double referenced by subtracting the reference surface responses to remove bulk refractive index changes, and then subtracting the averaged buffer blank response to remove systematic artifacts from the experimental flow cells.

[7] = molecular target: T3, monomeric human c-fms (residues …); test: Biacore, monomeric c-fms
Description: The binding affinities of the somatic mutation corrected antibodies to monomeric c-fms protein were measured by surface plasmon resonance using a Biacore 3000 instrument.
The affinity of human c-fms (1-512). pHIS (Amgen) for the anti-c-fms mAbs was measured by Biacore. Experiments were conducted at 25° C. using a Biacore 3000 instrument (Biacore AB) equipped with a CM4 sensor chip. Sensor chips, amine coupling reagents (EDC (1-ethyl-3(3-dimethylaminopropyl)-carbodiimide hydrochloride), NHS (N-hydroxysuccinimide), and ethanolamine-HCl, pH 8.5), 10 mM sodium acetate, pH 5.5, HBS-EP (0.01 M HEPES pH 7.4, 0.15 M NaCl, 3 mM EDTA, 0.005% v/v Surfactant P20), and 10 mM glycine-HCl, pH 1.5 were purchased from Biacore AB. Bovine serum albumin (BSA, Bovuminar Standard Powder) was purchased from Serological Corporation. AffiniPure Goat Anti-Human IgG, Fcγ Fragment Specific was purchased from Jackson ImmunoResearch Laboratories.
as §2

[8] = molecular target: T1, human c-fms, full length, on cells; test: inhibition of 125I-hCSF-1 binding to AML-5 cells, 4 C; competitor: 125I-hCSF-1
Description: (§4) A saturation radioligand binding experiment was performed in conjunction with each inhibition assay in order to determine both a KD and […] for hCSF-1 binding to c-fms expressed on the surface of AML-5 cells. Mixtures were set up in 96-well round-bottom microtiter plates with total volumes of 150 μl/well. All reagents were diluted in binding media containing 0.2% sodium azide and experiments were conducted at 4° C. to minimize potential receptor internalization and shedding.
For the saturation binding assay, ¹²⁵I-hCSF-1 was serially diluted 2-fold, starting at a concentration of ˜1.7 nM and going out 12 wells to a concentration of ˜1.5 pM. Nonspecific binding was measured at a single concentration of ¹²⁵I-hCSF-1 (˜80 pM, in triplicate) in the presence of a 1,000-fold molar excess of unlabeled hCSF-1, and assumed to be a linear function of the concentration of radiolabeled hCSF-1 present.

[9] = molecular target: T1, human c-fms, full length, on cells; test: inhibition of 125I-CSF-1 binding to AML-5 cells; competitor: 125I-CSF-1 (summary table)
Description: as §4
Both assays were incubated at 4° C. on a miniorbital shaker for 4 hours, the length of time needed to reach equilibrium as determined in time course experiments. Two 60 μl aliquots of each incubation mixture were transferred to chilled 400 μl polyethylene centrifuge tubes containing 200 μl phthalate oil and spun for 1.5 minutes in a 4° C. tabletop microfuge (Sorvall,) at 9615×g to separate cell associated ¹²⁵I-hCSF-1 from free ¹²⁵I-hCSF-1. The oil tubes were cut, and each cell pellet and supernatant collected in individual 12×75 mm glass tubes and loaded on a COBRA gamma counter (Packard Instrument Company) for cpm measurements. Cpm from duplicate aliquots taken from each well were averaged for analysis.
Mean K₁ values from 2 experiments were reported (see, TABLE 13).

[10] = molecular target: T4, avidin-c-fms Ig-like 1 domain fusion protein (chicken; human, UniProt P07333 20-126); test: FACS, biotin beads coated with the avidin fusion protein, FITC-2.36 without competitor
T4 construct: Joined through an XhoI site; Captured on biotin beads; also called Ig1 construct; Ig-like loop 1 (IPVI-ALLP); not shown: chicken avidin, N-terminal fusion partner from pCEP4-Avidin(N)

[11] = molecular target: T3, monomeric human c-fms (residues …); test: Biacore 3000, 25 C; mAb captured on goat anti-human IgG Fc, monomeric c-fms(1-512)-pHis analyte, 1:1 fit
Description: as §1, §2, §3

[12] = molecular target: T5, avidin-c-fms Ig-like 2 domain only fusion protein (chicken; human, UniProt P07333 85-223); test: FACS, biotin beads loaded with the avidin fusion protein; per the sheet's title 1 µg/mL anti C-FMS and 1 µg/mL mouse anti-human IgG Fc-gamma FITC secondary
T5 construct: Captured on biotin beads; also called Ig-like loop 2 alone (TEPG-AQIV); not shown: chicken avidin, N-terminal fusion partner from pCEP4-Avidin(N)

[13] = molecular target: T4, avidin-c-fms Ig-like 1 domain fusion …; test: FACS, biotin beads coated with the avidin fusion protein, FITC-1.109 without competitor

T5 sequence (P07333 85-223 limits assumed): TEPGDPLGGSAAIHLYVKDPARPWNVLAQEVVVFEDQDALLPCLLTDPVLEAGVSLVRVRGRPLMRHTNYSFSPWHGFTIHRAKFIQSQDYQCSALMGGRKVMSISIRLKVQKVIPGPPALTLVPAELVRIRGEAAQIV
T3 sequence (P07333 20-512): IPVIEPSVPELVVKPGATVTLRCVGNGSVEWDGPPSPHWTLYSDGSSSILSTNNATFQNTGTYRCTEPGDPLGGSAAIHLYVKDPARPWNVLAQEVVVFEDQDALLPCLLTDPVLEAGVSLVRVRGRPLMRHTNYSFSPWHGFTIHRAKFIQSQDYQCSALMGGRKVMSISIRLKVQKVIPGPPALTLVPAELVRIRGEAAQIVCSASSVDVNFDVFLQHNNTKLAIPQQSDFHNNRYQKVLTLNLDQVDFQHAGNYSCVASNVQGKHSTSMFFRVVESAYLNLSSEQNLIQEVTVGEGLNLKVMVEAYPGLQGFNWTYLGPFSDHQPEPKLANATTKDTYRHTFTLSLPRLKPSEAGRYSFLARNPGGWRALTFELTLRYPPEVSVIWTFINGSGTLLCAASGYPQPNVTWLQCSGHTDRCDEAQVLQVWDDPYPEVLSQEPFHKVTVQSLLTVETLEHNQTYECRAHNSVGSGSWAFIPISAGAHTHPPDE
T1 sequence (P07333 20-972): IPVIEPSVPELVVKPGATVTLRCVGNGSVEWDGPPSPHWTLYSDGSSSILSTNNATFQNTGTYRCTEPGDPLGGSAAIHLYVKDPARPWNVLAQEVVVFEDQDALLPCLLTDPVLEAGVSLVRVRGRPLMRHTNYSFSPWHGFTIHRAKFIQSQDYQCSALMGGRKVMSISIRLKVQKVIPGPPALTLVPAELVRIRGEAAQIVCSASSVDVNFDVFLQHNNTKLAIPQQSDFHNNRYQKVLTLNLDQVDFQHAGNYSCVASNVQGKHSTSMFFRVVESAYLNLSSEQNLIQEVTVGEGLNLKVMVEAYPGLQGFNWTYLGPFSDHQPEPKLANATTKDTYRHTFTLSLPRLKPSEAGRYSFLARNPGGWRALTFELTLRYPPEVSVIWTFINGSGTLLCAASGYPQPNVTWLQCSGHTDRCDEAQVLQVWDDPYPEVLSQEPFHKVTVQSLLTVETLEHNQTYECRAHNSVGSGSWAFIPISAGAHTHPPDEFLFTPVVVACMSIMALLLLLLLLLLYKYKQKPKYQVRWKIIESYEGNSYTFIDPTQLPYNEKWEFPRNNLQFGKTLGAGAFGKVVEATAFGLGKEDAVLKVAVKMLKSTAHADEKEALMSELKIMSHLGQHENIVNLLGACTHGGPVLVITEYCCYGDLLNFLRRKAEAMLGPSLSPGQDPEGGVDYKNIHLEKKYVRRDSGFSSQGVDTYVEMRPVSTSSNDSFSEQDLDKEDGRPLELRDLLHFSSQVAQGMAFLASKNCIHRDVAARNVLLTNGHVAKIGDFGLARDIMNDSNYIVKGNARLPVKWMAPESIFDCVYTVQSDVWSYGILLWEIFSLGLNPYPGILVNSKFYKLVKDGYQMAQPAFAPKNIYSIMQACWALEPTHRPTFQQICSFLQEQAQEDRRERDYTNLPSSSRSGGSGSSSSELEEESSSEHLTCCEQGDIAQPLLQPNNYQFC
T4 sequence (P07333 20-126 limits assumed): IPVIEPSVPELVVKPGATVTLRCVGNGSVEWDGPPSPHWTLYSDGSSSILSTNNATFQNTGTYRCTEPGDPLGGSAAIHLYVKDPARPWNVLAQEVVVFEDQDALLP

antibody concentration that reduced CSF-1-induced pTyr/c-fms to background, 293T/c-fms cells [1]: 1 µg/ml
AML-5 bioassay IC50 [2]: 60 pM
Cynomolgus bone marrow bioassay IC50 [3]: 67 pM
AML-5 proliferation IC50 [4]: 60 pM
Cynomolgus Bone Marrow Proliferation IC50 [5]: 67 pM
Kd [6]: 535 pM
Kd [7]: 535 pM
Ki [8]: ~160 pM
Ki [9]: ~160 pM
binding result [10]: no binding (tested: 1 µg/ml)
Kd [11]: 535 pM
koff [11]: 0.000667 s⁻¹
kon [11]: 1.25e+06 M⁻¹ s⁻¹
binding result [12]: no binding (tested: 1 µg/mL)
B1: anti-c-fms IgG2 clone 2.360 (parent form, PT) (antibody, V domains shown)
VH: QVQLVQSGAEVKKPGASVKVSCKVSGYTLTELSMHWVRQAPGKGLEWMGGFDPEDGETIYAQKFQGRVTMTEDTSTDTVYMELSSLRSEDTAVYYCATGVMITFGGVIVGHSYYGMDVWGQGTTVTVSS
VL: DIQMTQSPSSLSASVGDRVTITCRASQGINNYLAWYQQKPGKVPQLLIYVASTLQSGVPSRFSGSGSGTDFTLTISSLQPEDVATYYCQKYNSGPFTFGPGTKVDIKR
modifications: N-terminal glutamine cyclized to pyroglutamic acid; C-terminal lysine absent
notes: Recombinant human IgG2 kappa from COS/PKB cells

antibody concentration that prevented CSF-1-induced pTyr/c-fms, 293T/c-fms cells [1]: ≥ 0.1 µg/ml
antibody concentration that reduced CSF-1-induced pTyr/c-fms to background, 293T/c-fms cells [1]: 0.1 µg/ml
AML-5 bioassay IC50 [2]: 27 pM
Cynomolgus bone marrow bioassay IC50 [3]: 78 pM
AML-5 proliferation IC50 [4]: 27 pM
Cynomolgus Bone Marrow Proliferation IC50 [5]: 78 pM
Kd [6]: 516 pM
Kd [7]: 516 pM
Ki [8]: 8.5 pM
Ki [9]: 8.5 pM
Kd [11]: 516 pM
koff [11]: 0.00198 s⁻¹
kon [11]: 3.84e+06 M⁻¹ s⁻¹
binding result [12]: no binding (tested: 1 µg/mL)
B2: anti-c-fms IgG2 clone 1.2 (parent form, PT) (antibody, V domains shown)
VH: QVQLVQSGAEVKKPGASVKVSCKASGYTFTSYGISWVRQAPGQGLEWMGWISAYNGNTNYAQKLQGRVTMTTDTSTSTAYMELRSLRSDDTAVYYCARESWFGEVFFDYWGQGTLVTVSS
VL: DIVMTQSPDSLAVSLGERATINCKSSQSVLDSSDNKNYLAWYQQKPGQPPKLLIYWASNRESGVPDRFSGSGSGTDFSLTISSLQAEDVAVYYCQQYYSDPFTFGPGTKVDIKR
modifications: N-terminal glutamine cyclized to pyroglutamic acid; C-terminal lysine absent
notes: Recombinant human IgG2 kappa from COS/PKB cells (hybridoma was IgG1); also called 1.2.1; Clone 1.2 PT

antibody concentration that prevented CSF-1-induced pTyr/c-fms, 293T/c-fms cells [1]: ≥ 0.1 µg/ml
antibody concentration that reduced CSF-1-induced pTyr/c-fms to background, 293T/c-fms cells [1]: 0.1 µg/ml
AML-5 bioassay IC50 [2]: 27 pM
Cynomolgus bone marrow bioassay IC50 [3]: 16 pM
AML-5 proliferation IC50 [4]: 27 pM
Cynomolgus Bone Marrow Proliferation IC50 [5]: 16 pM
Kd [6]: 51 pM
Kd [7]: 51 pM
Ki [8]: 13.5 pM
Ki [9]: 13.5 pM
binding result [13]: no binding (tested: 1 µg/ml)
Kd [11]: 51 pM
koff [11]: 0.000129 s⁻¹
kon [11]: 2.54e+06 M⁻¹ s⁻¹
binding result [12]: no binding (tested: 1 µg/mL)
B3: anti-c-fms IgG2 clone 1.109 (parent form, PT) (antibody, V domains shown)
VH: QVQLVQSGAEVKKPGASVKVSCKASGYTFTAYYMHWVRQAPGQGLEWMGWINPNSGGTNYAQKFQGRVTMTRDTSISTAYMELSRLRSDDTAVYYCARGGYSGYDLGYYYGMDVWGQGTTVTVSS
VL: DIQMTQSPSSLSASVGDRVTITCQASQNISNFLDWYQQKPGKAPNLLIYDASDLDPGVPSRFSGSGSGTDFTFTISSLQPEDIATYYCQQYVSLPLTFGGGTKVEIKR
modifications: N-linked glycosylation site at Asn-28 in CDR1, reported as likely occupied; N-terminal glutamine cyclized to pyroglutamic acid; C-terminal lysine absent
notes: Recombinant human IgG2 kappa from COS/PKB cells (hybridoma was IgG1)
